US20080181886A1, “Polypeptides That Bind Baff And/Or April” (Genentech, Inc., priority 2004, published 2008)

Tests used:
human BAFF (human) [1] = target: human BAFF (human) (UniProt Q9Y275); test: shotgun scan, phage display
human BAFF (human) [2] = target: human BAFF (human) (UniProt Q9Y275); test: NNS library, phage display
Murine APRIL (mouse) [3] = target: Murine APRIL (mouse) (UniProt Q9D777); test: shotgun scan, phage display
Murine APRIL (mouse) [4] = target: Murine APRIL (mouse) (UniProt Q9D777); test: NNS library, phage display

Chain of Murine APRIL (mouse) (Q9D777 105-241 limits assumed): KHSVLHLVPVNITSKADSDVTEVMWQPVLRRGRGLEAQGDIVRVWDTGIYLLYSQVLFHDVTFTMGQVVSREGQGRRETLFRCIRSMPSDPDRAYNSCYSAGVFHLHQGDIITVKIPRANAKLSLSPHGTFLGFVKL
Chain of human BAFF (human) (Q9Y275 82-285 limits assumed): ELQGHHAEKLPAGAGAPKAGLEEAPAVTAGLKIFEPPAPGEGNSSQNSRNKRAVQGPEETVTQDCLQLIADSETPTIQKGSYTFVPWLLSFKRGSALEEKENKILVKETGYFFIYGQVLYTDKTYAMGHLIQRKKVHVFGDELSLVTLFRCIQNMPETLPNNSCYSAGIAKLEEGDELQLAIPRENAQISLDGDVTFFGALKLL

| Binder | F (BAFF) (human BAFF (human) [1]) | F' BAFF (human BAFF (human) [2]) | F (APRIL) (Murine APRIL (mouse) [3]) | F' APRIL (Murine APRIL (mouse) [4]) |
| --- | --- | --- | --- | --- |
| SLSCRKEQGKFYDHLLRDCISCASICGPHPKQCAYFCENKLR (receptor) [TACI_d2 Q95P] | > 54 | – | – | – |
| SLSCRKEQGKFYDHLLPDCISCASICGQHPKQCAYFCENKLR (receptor) [TACI_d2 R84P] | > 52 | 0 | – | – |
| SLSCRKEQGKFSDHLLRDCISCASICGQHPKQCAYFCENKLR (receptor) [TACI_d2 Y79S] | > 36 | 0 | – | – |
| SLSCRKEQGKFYDHLLGDCISCASICGQHPKQCAYFCENKLR (receptor) [TACI_d2 R84G] | 13 | 0 | – | – |
| SLSCRKEQGKFYDHLPRDCISCASICGQHPKQCAYFCENKLR (receptor) [TACI_d2 L83P] | 15 | – | – | – |

More lines, now with the values ahead:

| F (BAFF) (human BAFF (human) [1]) | F' BAFF (human BAFF (human) [2]) | F (APRIL) (Murine APRIL (mouse) [3]) | F' APRIL (Murine APRIL (mouse) [4]) | Binder |
| --- | --- | --- | --- | --- |
| 20 | – | 48 | – | SLSCRKEQGKFYDHLLRDCISCASICGQPPKQCAYFCENKLR (receptor) [TACI_d2 H96P] |
| > 9.5 | 0 | > 8.2 | 0 | SLSCRKEQGKFDDHLLRDCISCASICGQHPKQCAYFCENKLR (receptor) [TACI_d2 Y79D] |
| > 29 | – | – | – | SLSCRKEQGKFYDHLLRDCISCASICGQDPKQCAYFCENKLR (receptor) [TACI_d2 H96D] |
